The record followed here is article PMC4336573 (2015).

This experiment has as its target T1, Histone H3 K27me3 peptide H3K27me3 peptide (Homo sapiens, UniProt P68431, K27 trimethylation (H3)).
T1 chain: QLATKAARKSAPATGGV
The experiment can be described thus: fluorescence anisotropy. A general note: In fluorescence polarisation assays a small probe gives low polarisation when free and higher when bound to something large.

For orientation: Kd means the equilibrium constant for the complex coming apart. Low readings indicate higher affinity, high ones lower affinity.

B1: CBX7 chromodomain (protein)
chain: FAVESIRKKRVRKGKVEYLVKWKGWPPKYSTWEPEEHILDPRLVMAYEEKEERDRASGY
The molecule B1 gave a Kd of 27.7 µM.
